According to patent US20240124553A1:

Assays:
Test in all cases: flow cytometry, transfected 293T cells
[1] = target: CHIKV E2-E1 envelope glycoproteins (strain S27), E2 mutant A76S (chikungunya virus strain S27) (UniProt Q8JUX5)
[2] = target: CHIKV E2-E1 envelope glycoproteins (strain S27), E2 mutant C91A (chikungunya virus strain S27) (UniProt Q8JUX5)
[3] = target: CHIKV E2-E1 envelope glycoproteins (strain S27), E2 mutant D117A (chikungunya virus strain S27) (UniProt Q8JUX5)
[4] = target: CHIKV E2-E1 envelope glycoproteins (strain S27), E2 mutant D132A (chikungunya virus strain S27) (UniProt Q8JUX5)
[5] = target: CHIKV E2-E1 envelope glycoproteins (strain S27), E2 mutant D63A (chikungunya virus strain S27) (UniProt Q8JUX5)
[6] = target: CHIKV E2-E1 envelope glycoproteins (strain S27), E2 mutant E40A (chikungunya virus strain S27) (UniProt Q8JUX5)
[7] = target: CHIKV E2-E1 envelope glycoproteins (strain S27), E2 mutant F115A (chikungunya virus strain S27) (UniProt Q8JUX5)
[8] = target: CHIKV E2-E1 envelope glycoproteins (strain S27), E2 mutant G55A (chikungunya virus strain S27) (UniProt Q8JUX5)
[9] = target: CHIKV E2-E1 envelope glycoproteins (strain S27), E2 mutant G57A (chikungunya virus strain S27) (UniProt Q8JUX5)
[10] = target: CHIKV E2-E1 envelope glycoproteins (strain S27), E2 mutant G82A (chikungunya virus strain S27) (UniProt Q8JUX5)
[11] = target: CHIKV E2-E1 envelope glycoproteins (strain S27), E2 mutant H130A (chikungunya virus strain S27) (UniProt Q8JUX5)
[12] = target: CHIKV E2-E1 envelope glycoproteins (strain S27), E2 mutant H99A (chikungunya virus strain S27) (UniProt Q8JUX5)
[13] = target: CHIKV E2-E1 envelope glycoproteins (strain S27), E2 mutant I121A (chikungunya virus strain S27) (UniProt Q8JUX5)
[14] = target: CHIKV E2-E1 envelope glycoproteins (strain S27), E2 mutant I56A (chikungunya virus strain S27) (UniProt Q8JUX5)
[15] = target: CHIKV E2-E1 envelope glycoproteins (strain S27), E2 mutant K107A (chikungunya virus strain S27) (UniProt Q8JUX5)
[16] = target: CHIKV E2-E1 envelope glycoproteins (strain S27), E2 mutant K120A (chikungunya virus strain S27) (UniProt Q8JUX5)
[17] = target: CHIKV E2-E1 envelope glycoproteins (strain S27), E2 mutant K47A (chikungunya virus strain S27) (UniProt Q8JUX5)
[18] = target: CHIKV E2-E1 envelope glycoproteins (strain S27), E2 mutant L102A (chikungunya virus strain S27) (UniProt Q8JUX5)
[19] = target: CHIKV E2-E1 envelope glycoproteins (strain S27), E2 mutant L111A (chikungunya virus strain S27) (UniProt Q8JUX5)
[20] = target: CHIKV E2-E1 envelope glycoproteins (strain S27), E2 mutant L67A (chikungunya virus strain S27) (UniProt Q8JUX5)
[21] = target: CHIKV E2-E1 envelope glycoproteins (strain S27), E2 mutant M70A (chikungunya virus strain S27) (UniProt Q8JUX5)
[22] = target: CHIKV E2-E1 envelope glycoproteins (strain S27), E2 mutant M97A (chikungunya virus strain S27) (UniProt Q8JUX5)
[23] = target: CHIKV E2-E1 envelope glycoproteins (strain S27), E2 mutant Q49A (chikungunya virus strain S27) (UniProt Q8JUX5)
[24] = target: CHIKV E2-E1 envelope glycoproteins (strain S27), E2 mutant R38A (chikungunya virus strain S27) (UniProt Q8JUX5)
[25] = target: CHIKV E2-E1 envelope glycoproteins (strain S27), E2 mutant S122A (chikungunya virus strain S27) (UniProt Q8JUX5)
[26] = target: CHIKV E2-E1 envelope glycoproteins (strain S27), E2 mutant T116A (chikungunya virus strain S27) (UniProt Q8JUX5)
[27] = target: CHIKV E2-E1 envelope glycoproteins (strain S27), E2 mutant T45A (chikungunya virus strain S27) (UniProt Q8JUX5)
[28] = target: CHIKV E2-E1 envelope glycoproteins (strain S27), E2 mutant T65A (chikungunya virus strain S27) (UniProt Q8JUX5)
[29] = target: CHIKV E2-E1 envelope glycoproteins (strain S27), E2 mutant T87A (chikungunya virus strain S27) (UniProt Q8JUX5)
[30] = target: CHIKV E2-E1 envelope glycoproteins (strain S27), E2 mutant T92A (chikungunya virus strain S27) (UniProt Q8JUX5)
[31] = target: CHIKV E2-E1 envelope glycoproteins (strain S27), E2 mutant T94A (chikungunya virus strain S27) (UniProt Q8JUX5)
[32] = target: CHIKV E2-E1 envelope glycoproteins (strain S27), E2 mutant W64A (chikungunya virus strain S27) (UniProt Q8JUX5)
[33] = target: CHIKV E2-E1 envelope glycoproteins (strain S27), E2 mutant Y69A (chikungunya virus strain S27) (UniProt Q8JUX5)

| Substance | Binding Reactivity (% WT) [2] [% WT] | Binding Reactivity (% WT) [3] [% WT] | Binding Reactivity (% WT) [5] [% WT] | Binding Reactivity (% WT) [6] [% WT] | Binding Reactivity (% WT) [8] [% WT] | Binding Reactivity (% WT) [9] [% WT] | Binding Reactivity (% WT) [10] [% WT] | Binding Reactivity (% WT) [11] [% WT] | Binding Reactivity (% WT) [12] [% WT] | Binding Reactivity (% WT) [13] [% WT] | Binding Reactivity (% WT) [14] [% WT] | Binding Reactivity (% WT) [15] [% WT] | Binding Reactivity (% WT) [16] [% WT] | Binding Reactivity (% WT) [17] [% WT] | Binding Reactivity (% WT) [18] [% WT] | Binding Reactivity (% WT) [19] [% WT] | Binding Reactivity (% WT) [20] [% WT] | Binding Reactivity (% WT) [21] [% WT] | Binding Reactivity (% WT) [22] [% WT] | Binding Reactivity (% WT) [23] [% WT] | also measured |
| --- | --- | --- | --- | --- | --- | --- | --- | --- | --- | --- | --- | --- | --- | --- | --- | --- | --- | --- | --- | --- | --- |
| CHIKV mAb IM-CKV065 (antibody) | -2 | 70.9 | 64.8 | 124 | 86.2 | 108 | 104 | 104 | 27.5 | 111 | 102 | 95.2 | 0.4 | 85.5 | 4.7 | 6.6 | 54.1 | 104 | 65.7 | 37.3 | Binding Reactivity (% WT) [1]: 125 % WT; Binding Reactivity (% WT) [4]: 126 % WT; Binding Reactivity (% WT) [7]: -0.2 % WT; Binding Reactivity (% WT) [24]: 133 % WT; Binding Reactivity (% WT) [25]: 91.1 % WT; Binding Reactivity (% WT) [26]: 103 % WT; Binding Reactivity (% WT) [27]: 62.4 % WT; Binding Reactivity (% WT) [28]: 98.4 % WT; Binding Reactivity (% WT) [29]: 7.6 % WT; Binding Reactivity (% WT) [30]: 93.2 % WT; Binding Reactivity (% WT) [31]: 102 % WT; Binding Reactivity (% WT) [32]: 86.3 % WT; Binding Reactivity (% WT) [33]: 46.3 % WT |
| Mxra8-Fc (mouse Mxra8 extracellular domain fused to mouse IgG2b Fc) (Fc fusion) | 1 | -0.3 | 85 | 86.2 | 101 | 106 | 123 | 101 | 58.1 | 12.1 | 91.7 | 84.6 | 1.8 | 102 | 22.8 | 25.7 | 77.4 | 110 | 95.1 | 56.8 | Binding Reactivity (% WT) [24]: 90.7 % WT; Binding Reactivity (% WT) [25]: 101 % WT; Binding Reactivity (% WT) [26]: 31.2 % WT; Binding Reactivity (% WT) [27]: 81.2 % WT; Binding Reactivity (% WT) [28]: 68.9 % WT; Binding Reactivity (% WT) [29]: 23.5 % WT; Binding Reactivity (% WT) [30]: 98.6 % WT; Binding Reactivity (% WT) [31]: 99.7 % WT; Binding Reactivity (% WT) [32]: 17.7 % WT; Binding Reactivity (% WT) [33]: 106 % WT |
| CHIKV mAb C9 (antibody) | 0.6 | 74.4 | 71.8 | 107 | 75.9 | 109 | 90.2 | 106 | 57.4 | 96.7 | 114 | 95.6 | 15.4 | 84 | 31.2 | 23.2 | 60.9 | 81 | 76.3 | 47 | Binding Reactivity (% WT) [1]: 107 % WT; Binding Reactivity (% WT) [4]: 94.4 % WT; Binding Reactivity (% WT) [7]: 4.3 % WT; Binding Reactivity (% WT) [24]: 86.3 % WT; Binding Reactivity (% WT) [25]: 98.7 % WT; Binding Reactivity (% WT) [26]: 98.2 % WT; Binding Reactivity (% WT) [27]: 71.7 % WT; Binding Reactivity (% WT) [28]: 71.1 % WT; Binding Reactivity (% WT) [29]: 20.7 % WT; Binding Reactivity (% WT) [30]: 96 % WT; Binding Reactivity (% WT) [31]: 116 % WT; Binding Reactivity (% WT) [32]: 60.6 % WT; Binding Reactivity (% WT) [33]: 55.3 % WT |
| CHIKV mAb IM-CKV063 (antibody) | 1.5 | 74.2 | 65.8 | 106 | 83.3 | 96.5 | 91.1 | 91 | 63.8 | 109 | 111 | 86.8 | 13.1 | 72.1 | 24.1 | 20.3 | 62.1 | 81.7 | 69.9 | 55.4 | Binding Reactivity (% WT) [1]: 107 % WT; Binding Reactivity (% WT) [4]: 116 % WT; Binding Reactivity (% WT) [7]: 3.6 % WT; Binding Reactivity (% WT) [24]: 94.7 % WT; Binding Reactivity (% WT) [25]: 82.8 % WT; Binding Reactivity (% WT) [26]: 104 % WT; Binding Reactivity (% WT) [27]: 62.1 % WT; Binding Reactivity (% WT) [28]: 70.1 % WT; Binding Reactivity (% WT) [29]: 18.8 % WT; Binding Reactivity (% WT) [30]: 84.5 % WT; Binding Reactivity (% WT) [31]: 95.5 % WT; Binding Reactivity (% WT) [32]: 69.1 % WT; Binding Reactivity (% WT) [33]: 60.7 % WT |
| CHIKV mAb CHKV-88 (antibody) | 4 | 103 | 85 | 108 | 111 | 134 | 91.5 | 110 | 85.6 | 111 | 116 | 99.2 | 82.3 | 100 | 61.4 | 50.9 | 84.6 | 93.7 | 85.1 | 87.1 | Binding Reactivity (% WT) [1]: 122 % WT; Binding Reactivity (% WT) [4]: 120 % WT; Binding Reactivity (% WT) [7]: 25.1 % WT; Binding Reactivity (% WT) [24]: 99.6 % WT; Binding Reactivity (% WT) [25]: 84.3 % WT; Binding Reactivity (% WT) [26]: 110 % WT; Binding Reactivity (% WT) [27]: 85.7 % WT; Binding Reactivity (% WT) [28]: 87.9 % WT; Binding Reactivity (% WT) [29]: 52.9 % WT; Binding Reactivity (% WT) [30]: 109 % WT; Binding Reactivity (% WT) [31]: 109 % WT; Binding Reactivity (% WT) [32]: 126 % WT; Binding Reactivity (% WT) [33]: 95.4 % WT |
